Data taken from the supplement of paper PMC12338614.
± gives the uncertainty stated by the source.

B1: library; numbered along this chain (parent)
chain: MEVVDPQQLGMFTEGELMSVGMDTFIHRIDSTEVIYQPRRKRAKLIGKYLMGDLLGEGSYGKVKEVLDSETLCRRAVKILKKKKLRRIPNGEANVKKEIQLLRRLRHKNVIQLVDVLYNEEKQKMYMVMEYCVCGMQEMLDSVPEKRFPVCQAHGYFCQLIDGLEYLHSQGIVHKDIKPGNLLLTTGGTLKISDLGVAEALHPFAADDTCRTSQGSPAFQPPEIANGLDTFSGFKVDIWSAGVTLYNITTGLYPFEGDNIYKLFENIGKGSYAIPGDCGPPLSDLLKGMLEYEPAKRFSIRQIRQHSWFRKKHPPAEAPVPIPPSPDTKDRWRSMTVVPYLEDLHGADEDEDLFDIEDDIIYTQDFTVPGQVPEEEASHNGQRRGLPKAVCMNGTEAAQLSTKSRAEGRAPNPARKACSASSKIRRLSACKQQ

Variants of: B1
Assay: STK11 functional score (HeLa growth suppression), rescaled enrichment; synonymous median = 1, nonsense median = 0 (normalised score)
Details: with HeLa; variant type: missense
Procedure: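 Deep mutational scan (TileSeq/POPCode codon randomisation) of full-length codon-optimised STK11 cDNA integrated at a Bxb1 landing pad (AAVS1) in HeLa cells. Restoring functional STK11 suppresses HeLa proliferation. Variant frequencies were measured by NGS before and after about two weeks of growth. The error-corrected enrichment log-ratio was rescaled so that synonymous median = 1 and nonsense median = 0, scores above 1 were compressed, and codon-level and three biological replicate scores were combined; error is the bootstrapped standard error. Scale: synonymous median = 1, nonsense median = 0; below 0.5 = damaging.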
Variant MEVVDPQQLGMFTEGELMSVGMDTFIHRIDSTEVIYQPRRKRAKLIGKYLMGDLLGEGSYGKVKEVLDSETLCRRAVKILKKKKLRRIPNGEANVKKEIQLLRRLRHKNVIQLVDVLYNEEKYKMYMVMEYCVCGMQEMLDSVPEKRFPVCQAHGYFCQLIDGLEYLHSQGIVHKDIKPGNLLLTTGGTLKISDLGVAEALHPFAADDTCRTSQGSPAFQPPEIANGLDTFSGFKVDIWSAGVTLYNITTGLYPFEGDNIYKLFENIGKGSYAIPGDCGPPLSDLLKGMLEYEPAKRFSIRQIRQHSWFRKKHPPAEAPVPIPPSPDTKDRWRSMTVVPYLEDLHGADEDEDLFDIEDDIIYTQDFTVPGQVPEEEASHNGQRRGLPKAVCMNGTEAAQLSTKSRAEGRAPNPARKACSASSKIRRLSACKQQ [Q123Y] has an STK11 functional score of 1.01 ± 0.22.
MEVVDPQQLGMFTEGELMSVGMDTFIHRIDSTEVIYQPRRKRAKLIGKYLMGDLLGEGSYGKVKEVLDSETLCRRAVKILKKKKLRRIPNGEANVKKEIQLLRRLRHKNVIQLVDVLYNEEKQKMYMVMEYCVCGMQEMLDSVPEKRFPVCQAHGYFCQLIDGLEYLHSQGIVHKDIKPGNLLLRTGGTLKISDLGVAEALHPFAADDTCRTSQGSPAFQPPEIANGLDTFSGFKVDIWSAGVTLYNITTGLYPFEGDNIYKLFENIGKGSYAIPGDCGPPLSDLLKGMLEYEPAKRFSIRQIRQHSWFRKKHPPAEAPVPIPPSPDTKDRWRSMTVVPYLEDLHGADEDEDLFDIEDDIIYTQDFTVPGQVPEEEASHNGQRRGLPKAVCMNGTEAAQLSTKSRAEGRAPNPARKACSASSKIRRLSACKQQ [T185R] showed an STK11 functional score of 0.992 ± 0.21.
For MEVVDPQQLGMFTEGELMSVGMDTFIHRIDSTEVIYQPRRKRAKLIGKYLMGDLLGEGSYGKVKEVLDSETLCRRAVKILKKKKLRRIPNGEANVKKEIQLLRRLRHKNVIQLVDVLYNEEKQKMYMVMEYCVCGMQEMLDSVPEKRFPVCQAHGYFCQLIDGLEYLHSQGIVHKDIKPGNLLLTTGGTLKISDLGVAEALHPFAADDTCRTSQGSPAFQPPEIANGLDTFSGFKVDIWSAGVTLYNITTGLYPFEGDNIYKLFENIGKGSYAIPGDCGPPLSDLLKGMLEYEPAKRFSIRQIRQHSWFRKKHPPAEAPVPIPPSPDTKDRWRSMTVVPYLEDLHGADEDEDLFDIEDDIIYTQDFTVPGQVPEEEASHNGQRRGLPKAVCMNGTEPAQLSTKSRAEGRAPNPARKACSASSKIRRLSACKQQ [A397P], the STK11 functional score was 1.18 ± 0.49.
In the case of MEVVDPQQLGMFTEGELMSVGMDTFIHRIDSTEVIYQPRRKRAKLIGKYLMGDLLGEGSYGKVKEVLDSETLCRRAVKILKKKKLRRIPNGEANVKKEIQLLRRLRHKNVIQLVDVLYNEEKQKMYMVMEYCVCGMQEMLDSVPEKRFPVCQAHGYFCQLIDGLEYLHSQGIVHKDIKPGNLLLTTGGTLKISDLGVAEATHPFAADDTCRTSQGSPAFQPPEIANGLDTFSGFKVDIWSAGVTLYNITTGLYPFEGDNIYKLFENIGKGSYAIPGDCGPPLSDLLKGMLEYEPAKRFSIRQIRQHSWFRKKHPPAEAPVPIPPSPDTKDRWRSMTVVPYLEDLHGADEDEDLFDIEDDIIYTQDFTVPGQVPEEEASHNGQRRGLPKAVCMNGTEAAQLSTKSRAEGRAPNPARKACSASSKIRRLSACKQQ [L201T], the STK11 functional score is reported as 1.2 ± 0.26.
MEVVDPQQLGMFTEGELMSVGMDTFIHRIDSTEVIYQPRRKRAKLIGKYLMGDLLGEGSYGKVKEVLDSETLCRRAVKILKKKKLRRIPNGEANVKKEIQLLRRLRHKNVIQLVDVLYNEEKQKMYMVMEYCVCGMQEMLDSVPEKRFPVCQAHGYFCQLIDGLEYLHSQGIVHKDIKPGNLLLTTGGTLKISDLGVAEALHPFAADDTCRTSQGSPAFQPPEIANGLDTFSGFKVDIWSAGVTLYNITTGLYPFEGDNIYKLFENIGKGSYAIPGDCGPPLSDLLKGMLEYEPAKRFSIRQIRQHSWFRKKHPPAEAPVPIPPSPDTKDRWRSMTVVPYLEDLHGADEDEDLFDIEDDIIYTQDFTVPGQVPEEEASHNGQRRGLPKAVCMNGTEAAQLSTKSRAEGRAPNPARKFCSASSKIRRLSACKQQ [A417F] was tested, and the STK11 functional score was 1.15 ± 0.13.
For MEVVDPQQLGMFTEGELMSVGMDTFIHRIDSTEVIYQPRRKRAKLIGKYLMGDLLGEGSYGKVKEVLDSETLCRRAVKILKKKKLRRIPNGEANVKKEIQLLRRLRHKNVIQLVDVLYNEEKQKMYMVMEYCVCGMQEMLDSVPEKRFPVCQAHGYFCQLIDGLEYLHSQGICHKDIKPGNLLLTTGGTLKISDLGVAEALHPFAADDTCRTSQGSPAFQPPEIANGLDTFSGFKVDIWSAGVTLYNITTGLYPFEGDNIYKLFENIGKGSYAIPGDCGPPLSDLLKGMLEYEPAKRFSIRQIRQHSWFRKKHPPAEAPVPIPPSPDTKDRWRSMTVVPYLEDLHGADEDEDLFDIEDDIIYTQDFTVPGQVPEEEASHNGQRRGLPKAVCMNGTEAAQLSTKSRAEGRAPNPARKACSASSKIRRLSACKQQ [V173C], the STK11 functional score was 0.883 ± 0.57.
In the case of MEVVDPQQLGMFTEGELMSVGMDTFIHRIDSTEVIYQPRRKRAKLIGKYLMGDLLGEGSYGKVKEVLDSETLCRRAVKILKKKKLRRIPNGEANVKKEIQLLRRLRHKNVIQLVDVLYNEEKQKMYMVMEYCVCGMQEMLDSVPEKRFPVCQAHGYFCQLIDGLEYLHSQGIVHKDIKPGNLLLTTGGTLKISDLGVAEALHPFAADDTCRTSIGSPAFQPPEIANGLDTFSGFKVDIWSAGVTLYNITTGLYPFEGDNIYKLFENIGKGSYAIPGDCGPPLSDLLKGMLEYEPAKRFSIRQIRQHSWFRKKHPPAEAPVPIPPSPDTKDRWRSMTVVPYLEDLHGADEDEDLFDIEDDIIYTQDFTVPGQVPEEEASHNGQRRGLPKAVCMNGTEAAQLSTKSRAEGRAPNPARKACSASSKIRRLSACKQQ [Q214I], the STK11 functional score is reported as 1.05 ± 0.27.
Variant MEVVDPQQLGMFTEGELMSVGMDTFIHRIDSTEVIYQPRRKRAKLIGKYLMGDLLGEGSYGKVKEVLDSETLCRRAVKILKKKKLRRIPNGEANVKKEIQLLRRLRHKNVIQLVDVLYNEEKQKMYMVMEYCVCGMQEMLDSVPEKRFPVCQAHGYFCQLIDGLEYLHSQGIVHKDIKPGNLLLTTGGTLKISDLGVAEALHPFAADDTCRTSQGSPAFQPPEIANGLDTFSGFKVDIWSAGVTLYNITTGLYPFEGDNIYKLFENIGKGSYAIPGDCGPPLSDLLKGMLEYEPAKRFSIRQIRQHSWFRKKHPPAEAPVPIPPSPDTKDRWRSMKVVPYLEDLHGADEDEDLFDIEDDIIYTQDFTVPGQVPEEEASHNGQRRGLPKAVCMNGTEAAQLSTKSRAEGRAPNPARKACSASSKIRRLSACKQQ [T336K] has an STK11 functional score of 1.54 ± 0.18.
For MEVVDPQQLGMFTEGELMSVGMDTFIHRIDFTEVIYQPRRKRAKLIGKYLMGDLLGEGSYGKVKEVLDSETLCRRAVKILKKKKLRRIPNGEANVKKEIQLLRRLRHKNVIQLVDVLYNEEKQKMYMVMEYCVCGMQEMLDSVPEKRFPVCQAHGYFCQLIDGLEYLHSQGIVHKDIKPGNLLLTTGGTLKISDLGVAEALHPFAADDTCRTSQGSPAFQPPEIANGLDTFSGFKVDIWSAGVTLYNITTGLYPFEGDNIYKLFENIGKGSYAIPGDCGPPLSDLLKGMLEYEPAKRFSIRQIRQHSWFRKKHPPAEAPVPIPPSPDTKDRWRSMTVVPYLEDLHGADEDEDLFDIEDDIIYTQDFTVPGQVPEEEASHNGQRRGLPKAVCMNGTEAAQLSTKSRAEGRAPNPARKACSASSKIRRLSACKQQ [S31F], the STK11 functional score was 0.829 ± 0.12.
In the case of MEVVDPQQLGMFTEGELMSVGMDTFIHRIDSTEVIYQPRRKRAKLIGKYLMGDLLGEGSYGKVKEVLDSETLCRRAVKILKKKKLRRIPNGEANVKKEIQLLRRLRHKNVIQLVDVLYNEEKQKMYMVMEYCVCGMQEMLDSVPEKRFPVCQAHGYFCQLIDGLEYLHSQGIVHKDIKPGNLLLTTGGVLKISDLGVAEALHPFAADDTCRTSQGSPAFQPPEIANGLDTFSGFKVDIWSAGVTLYNITTGLYPFEGDNIYKLFENIGKGSYAIPGDCGPPLSDLLKGMLEYEPAKRFSIRQIRQHSWFRKKHPPAEAPVPIPPSPDTKDRWRSMTVVPYLEDLHGADEDEDLFDIEDDIIYTQDFTVPGQVPEEEASHNGQRRGLPKAVCMNGTEAAQLSTKSRAEGRAPNPARKACSASSKIRRLSACKQQ [T189V], the STK11 functional score is reported as 1.3 ± 0.28.
MEVVDPQQLGMFTEGELMSVGMDTFIHRIDSTEVIYQPRRKRAKLIGKYLMGDLLGEGSYGKVKEVLDSETLCRRAVKILKKKKLRRIPNGEANVKKEIQLLRRLRHKNVIQLVDVLYNEEKQKMYMVMEYCVCGMQEMLDSVPEKRFPVCQAHGYFCQLIDGLEYPHSQGIVHKDIKPGNLLLTTGGTLKISDLGVAEALHPFAADDTCRTSQGSPAFQPPEIANGLDTFSGFKVDIWSAGVTLYNITTGLYPFEGDNIYKLFENIGKGSYAIPGDCGPPLSDLLKGMLEYEPAKRFSIRQIRQHSWFRKKHPPAEAPVPIPPSPDTKDRWRSMTVVPYLEDLHGADEDEDLFDIEDDIIYTQDFTVPGQVPEEEASHNGQRRGLPKAVCMNGTEAAQLSTKSRAEGRAPNPARKACSASSKIRRLSACKQQ [L167P] gave an STK11 functional score of 0.104 ± 0.11.
With MEVVDPQQLGMFTEGELMSVGMDTFIHRIDSTEVIYQPRRKRAKLIGKYLMGDLLGEGSYGKVKEVLDSETLCRRAVKILKKKKLRRIPNGEANVKKEIQLLRRLRHKNVIQLVDVLYNEEKQKMYMVMEYCVCGMQEMLDSVPEKRFPVCQAHGYFCQLIDGLEYLHSQGIVHKDIKPGNLLLTTGGTLKISDLGVAEALHPFAADDTCRTSQGSPAFQPPEIANGLDTFSRFKVDIWSAGVTLYNITTGLYPFEGDNIYKLFENIGKGSYAIPGDCGPPLSDLLKGMLEYEPAKRFSIRQIRQHSWFRKKHPPAEAPVPIPPSPDTKDRWRSMTVVPYLEDLHGADEDEDLFDIEDDIIYTQDFTVPGQVPEEEASHNGQRRGLPKAVCMNGTEAAQLSTKSRAEGRAPNPARKACSASSKIRRLSACKQQ [G233R] the STK11 functional score was 0.173 ± 0.3.
MEVVDPQQLGMFTEGELMSVGMDTFIHRIDSTEVIYQPRRKRAKLIGKYLMGDLLGEGSYGKVKEVLDSETLCRRAVKILKKKKLRRIPNGEANVKKEIQLLRRLRHWNVIQLVDVLYNEEKQKMYMVMEYCVCGMQEMLDSVPEKRFPVCQAHGYFCQLIDGLEYLHSQGIVHKDIKPGNLLLTTGGTLKISDLGVAEALHPFAADDTCRTSQGSPAFQPPEIANGLDTFSGFKVDIWSAGVTLYNITTGLYPFEGDNIYKLFENIGKGSYAIPGDCGPPLSDLLKGMLEYEPAKRFSIRQIRQHSWFRKKHPPAEAPVPIPPSPDTKDRWRSMTVVPYLEDLHGADEDEDLFDIEDDIIYTQDFTVPGQVPEEEASHNGQRRGLPKAVCMNGTEAAQLSTKSRAEGRAPNPARKACSASSKIRRLSACKQQ [K108W] was tested, and the STK11 functional score was 0.834 ± 0.38.
Work on MEVVDPQQLGMFTEGELMSVGMDTFIHRIDSTEVIYQPRRKRAKLIGKYLMGDLLGEGSYGKVKEVLDSETLCRRAVKILKKKKLRRIPNGEANVKKEIQLLRRLRHKNVIQLVDVLYWEEKQKMYMVMEYCVCGMQEMLDSVPEKRFPVCQAHGYFCQLIDGLEYLHSQGIVHKDIKPGNLLLTTGGTLKISDLGVAEALHPFAADDTCRTSQGSPAFQPPEIANGLDTFSGFKVDIWSAGVTLYNITTGLYPFEGDNIYKLFENIGKGSYAIPGDCGPPLSDLLKGMLEYEPAKRFSIRQIRQHSWFRKKHPPAEAPVPIPPSPDTKDRWRSMTVVPYLEDLHGADEDEDLFDIEDDIIYTQDFTVPGQVPEEEASHNGQRRGLPKAVCMNGTEAAQLSTKSRAEGRAPNPARKACSASSKIRRLSACKQQ [N119W] yielded an STK11 functional score of 1.58 ± 0.17.
